Biological target: T1, CCR7 (human) (UniProt P32248)
T1 sequence: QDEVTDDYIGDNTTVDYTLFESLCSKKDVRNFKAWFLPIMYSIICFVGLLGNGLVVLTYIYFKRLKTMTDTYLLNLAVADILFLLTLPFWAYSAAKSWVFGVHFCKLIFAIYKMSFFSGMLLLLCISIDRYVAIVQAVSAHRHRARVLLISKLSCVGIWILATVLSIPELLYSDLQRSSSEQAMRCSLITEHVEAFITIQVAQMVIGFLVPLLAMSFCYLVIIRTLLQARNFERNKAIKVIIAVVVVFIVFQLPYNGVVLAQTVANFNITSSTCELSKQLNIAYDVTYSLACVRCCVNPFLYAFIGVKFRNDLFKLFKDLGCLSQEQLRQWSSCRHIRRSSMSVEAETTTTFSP
Assay: flow cytometry, live cells
Conditions: H9 cells (CCR7 positive), Cy3-RNA; 2'-F C and 2'-F U (all pyrimidines); Flow cytometry: 2.5e5 cells in 100 uL binding buffer, 30 min, room temperature; refolding/washing buffer DPBS pH 7.0-7.4, 1 mM CaCl2, 1 mM MgCl2, 2.7 mM KCl …

Sequence | Kd
GGGAGGACGAUGCGGAAUUCGUCAAAGUCGUUUAUUUCGUCUGUGCAGACGACUCGCCCGA [C-2A] | 0.0652 µM
GGGAGGACGAUGCGGUGCCGCACAUUAGUCUCUGGUUGCCCACGCCAGACGACUCGCCCGA [DD9-9] | 0.111 µM

Reference: publication PMC5031971
